Columns and labels:
[1] = target: T1, recombinant human NI-101.11 antibody; assay: competition ELISA: NI-101.11 (1nM) pre-incubated with the peptide at 10 nM to 10 µM, then binding to the coated plate (the coat is not named) [right panel]
T1 construct: also called human antibody against brain beta-amyloid

[2] = target: T2, artificial amyloid fibrils prepared from synthetic Abeta1-42 peptides (UniProt P05067 672-713); assay: ELISA, fibrillar Abeta1-42 coated on the plate, antibody 0.1pM to 100nM [right panel]
T2 construct: domain: Abeta1-42; Fibrillar assembly of many copies; also called Abeta1-42 fibrils; synthetic Abeta fibrils

[3] = target: T3, synthetic Abeta1-42 peptide (UniProt P05067 672-713); assay: ELISA, synthetic Abeta1-42 peptide coated on the plate
T3 construct: domain: Abeta1-42; also called linear synthetic Abeta1-42 monomers

[4] = target: T4, monomeric synthetic Abeta (UniProt P05067 672-713); assay: ELISA, monomeric synthetic Abeta coated on the plate, antibody titrated
T4 construct: also called monomeric Abeta; linear monomeric Abeta peptide

B1: linear synthetic N-terminal Abeta-derived polypeptide representing positions 1 to 16 (peptide)
peptide: DAEFRHDSGYEVHHQK
notes: domain: Abeta1-16; the numbers count on the Abeta peptide; also called Abeta1-16; monomeric Abeta1-16
[1]
  binding result: no binding (tested: 10 µM)

B2: recombinant human antibody NI-101.13A (antibody, V domains shown)
VH: QVQLQESGPGLVKPSETLSLTCTVSGGSISRRSYYWGWIRQSPGKGLEWSGSIHYSGSTYYNPSLKSRVTISVDTSKNQFSLKLSSVTAADTAVYYCARSRWGSSWVFDYWGQGTLVTVSS
VL: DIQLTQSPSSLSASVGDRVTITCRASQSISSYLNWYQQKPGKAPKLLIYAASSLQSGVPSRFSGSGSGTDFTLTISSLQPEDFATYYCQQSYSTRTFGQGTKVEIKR
[2]
  binding result: binds

B3: recombinant human antibody NI-101.13B (antibody, V domains shown)
VH: QVQLQESGPGLVKPSETLSLTCTVSGGSISRRSYYWGWIRQSPGKGLEWSGSIHYSGSTYYNPSLKSRVTISVDTSKNQFSLKLSSVTAADTAVYYCARSRWGSSWVFDYWGQGTLVTVSS
VL: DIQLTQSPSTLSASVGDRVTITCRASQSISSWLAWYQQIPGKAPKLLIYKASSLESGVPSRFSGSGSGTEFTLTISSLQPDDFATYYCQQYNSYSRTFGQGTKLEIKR
[2]
  binding result: binds

B4: recombinant NI-101.12 (antibody, V domains shown)
VH: EVQLVESGPGLVKPAETLSLTCTVSGGSIRSGSICWYWIRQPPGKGLEWIGYFCYSGATFYTPSLRGRLTISVDASKNQLSLSLSSVTAADTAVYYCARRAGENSGGIEPYYGMDVWGQGTTVTVSS
VL: EIVLTQSPSSLSASIGDRVTITCRASESINKYVNWYQQKPGKAPKLLIYAASSLQSGAPSRVSGSGFGRDFSLTISGLQAEDFGAYFCQQSYSAPYTFGQGTKVEIKR
[3]
  binding result: binds

B5: control antibody 22C4 (antibody, V domains shown)
VH: QVQLQQSGPELVKPGASVKISCKTSGYTFTEYTMHWVKQSHGKSLEWIGGVNPYNDNTSYIRKLQGKVTLTVDRSSSTAYMELRSLTSEDSAVYFCARYGGLRPYYFPMDFWGQGTSVTVSS
VL: DIVLTQSPAILSASPGEKVTLTCRASSSVNYMHWYQQKPGSPPKAWIYATSNLASGVPDRFSASGSGTSYSLTISRVEAEDAATYYCQQWRTNPPTFGAGTKLELK
[4]
  EC50 (read off the curve): ~1 nM

Reference: US20190263896A1 (UNIVERSITY OF ZURICH, published 2019)
